Patent publication US20120207673A1

Legend:
protein A [1] = biological target: protein A (UniProt P38507); test: phage ELISA on coated protein A; heat/cool assay, % of untreated sample (n = 2)
protein A [2] = biological target: protein A (UniProt P38507); test: phage ELISA on coated protein A; heat/cool assay, % of untreated sample

Substance | Retained binding to protein A (%) (protein A [1]) | Retained binding to protein A (%) (protein A [2])
DP47 VH S35D + SYA_31-33_DDD | 76.7 | 
DP47 VH S35D + YA_32/33_DD |  | 70.4
DP47 VH T28D + SYA_31-33_DDD | 74.9 | 
DP47 VH T28D + SYA_31-33_DDD + S35D | 78.6 | 
DP47 VH T28D + YA_32/33_DD | 76.1 | 
